In article PMC11758377 (2026) one finds Kd data, which are given here for 1 molecule.

The target in the assay is H3K4me3 peptide (Homo sapiens, UniProt P68431). Briefly: MST.

B1: BPTF-PHD PHD (protein)
chain: KLYCICKTPYDESKFYIGCDRCQNWYHGRCVGILQSEAELIDEYVCPQCQST
Take B1: binding was characterised by a dissociation constant (Kd) of 2900 nM.
